Values of other authors as cited in article PMC4954776.

Target: BRAF kinase domain 448-723 (Homo sapiens) (UniProt P15056)
Assay: sedimentation equilibrium

BRAF kinase domain 448-723, sequence (P15056 448-723): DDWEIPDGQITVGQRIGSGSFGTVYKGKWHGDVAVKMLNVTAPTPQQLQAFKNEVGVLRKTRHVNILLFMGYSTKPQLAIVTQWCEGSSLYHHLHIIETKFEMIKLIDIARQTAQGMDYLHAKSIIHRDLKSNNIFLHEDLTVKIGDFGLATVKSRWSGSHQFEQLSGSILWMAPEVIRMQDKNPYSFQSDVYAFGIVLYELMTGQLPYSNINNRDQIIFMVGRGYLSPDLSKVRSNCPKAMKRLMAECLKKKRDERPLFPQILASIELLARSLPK

- Kd: < 6.25 µM
Substance: BRAF kinase domain 448-723 (from UniProt P15056)
